Ends that are not written are not given here.
T1: mTLR1 TM C′-CtoA (mouse, N-terminal fluorescein (FRET donor) or N-terminal rhodamine (TAMRA) label, depending on the assay; synthesized on Rink amide MBHA resin)
T1 construct: Synthetic peptide; Tested in PC:Cholesterol LUVs or HEPES buffer; also called mTLR1 C′ TM (C to A); TLR1 TM C-terminus peptide
T1 peptide: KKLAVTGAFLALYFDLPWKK

T2: mTLR1 TM N′ (mouse, N-terminal fluorescein (FRET donor) or N-terminal rhodamine (TAMRA) label, depending on the assay; synthesized on Rink amide MBHA resin)
T2 construct: Synthetic peptide; Tested in PC:Cholesterol LUVs or HEPES buffer; also called mTLR1 N′ TM; TLR1 TM N-terminus peptide
T2 peptide: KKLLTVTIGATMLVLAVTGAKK


What was measured:
[1] = target: the molecule itself; assay: self-assembly assay, rhodamine dequenching after proteinase K, PC:Cholesterol LUVs (FIG. 7D)
Procedure: (7A-7B) Rhodamine conjugated TLR peptides mTLR2 TM N′-CtoA (SEQ ID NO:88), mTLR2 TM C′-CtoA (SEQ ID NO:86), mTLR1 TM N′ (SEQ ID NO:77) and mTLR1 TM C′-CtoA (SEQ ID NO:83), were added to HEPES solution and their emission at 585 nm was recorded before and after the addition of proteinase K. The addition of the proteinase K is indicated by a black arrow. mTLR1 TM C′-CtoA (SEQ ID NO:83), mTLR1 TM N′ (SEQ ID NO:77) and mTLR2 TM C′-CtoA (SEQ ID NO:86) are capable to self assemble in solution, to a very slight extent (7A). mTLR2 TM N′-CtoA (SEQ ID NO:88) highly oligomerise in solution (black line, 7B) and is partially dissociated in the presence of LUVs (gray line, 7B). […] LL37 is shown as an example for a peptide that is highly oligomerised in liposomes (7D).
We have tested this characteristic, both in solution and on a membrane interface. We measured the initial emission of rhodamine labeled peptides at 580 nm in solution only, or in a solution containing PC:Cholesterol LUVs, and then followed the increase of the emission over time after the addition of protease-K to the medium. […] The known oligomeric antimicrobial peptide LL37 (Rosenfeld et al., 2006a) was used as a positive control.

mTLR1 TM C′-CtoA = target: T1, mTLR1 TM C′-CtoA; assay: FRET in PC:Cholesterol LUVs, fluorescein-mTLR1 TM C′-CtoA donor, rhodamine-Cp acceptor (FIG. 2A)
Source text: FIGS. 2A-2C show fluorescence resonance energy transfer (FRET) between mTLR1 TM C′-CtoA (SEQ ID NO:83) and other TM peptides. mTLR1 TM C′ peptide was labeled with fluorescein (Donor) and loaded on PC:Cholesterol large unilamellar vesicles (LUVs). Changes in the intensity of the emission signal were monitored between 500 to 600 nm, upon the addition of successive amounts of rhodamine labeled mTLR1 TM C′-CtoA (SEQ ID NO:83; homodimers, 2B) and mTLR2 TM C′-CtoA (SEQ ID NO:86; heterodimers, 2C). Rhodamine labeled TCRα TM domain peptide (Cp; […]-NH2, SEQ ID NO:123) was used as a negative control (2A).
(§1) Large unilamellar vesicles (LUVs) composed of phosphatidylcholine (PC) and cholesterol (10:1, w/w), were prepared using the extrusion method as described previously (Cohen et al, 2008). The fluorescence experiments were performed with pairs of peptides using fluorescein labeled peptides as donors and rhodamine labeled peptides as acceptors. Fluorescence spectra were obtained at room temperature, with excitation set at 494 nm (10 nm slit) and emission scan at 500-600 nm (10 nm slits), by a Cary eclipse fluorescence spectrophotometer (Varian Inc., Palo Alto, Calif.). […] Fluorescence spectra were obtained before and after the addition of the rhodamine labeled peptides. Fluorescence values were corrected by subtracting the changes in emission obtained by adding HEPES only. […]

mTLR1 TM N′ = target: T2, mTLR1 TM N′; assay: FRET in PC:Cholesterol LUVs, fluorescein-mTLR1 TM N′ donor, rhodamine-Cp acceptor (FIG. 3A)
Source text: FIGS. 3A-3C show FRET between mTLR1 TM N′ (SEQ ID NO:77) and other TM peptides. mTLR1 TM N′ peptide labeled with fluorescein (donor) and loaded on PC:Cholesterol LUVs. Changes in the intensity of the emission signal were monitored between 500 to 600 nm, upon the addition of successive amounts of rhodamine labeled mTLR1 TM N′ (SEQ ID NO:77; homodimers, 3B) and mTLR2 TM N′-CtoA (SEQ ID NO:88; heterodimers, 3C). Rhodamine labeled TCRα TM domain peptide (Cp; […]-NH2, SEQ ID NO:123) was used as a negative control (3A).
as §1

| Binder | binding result [1] | binding result (mTLR1 TM C′-CtoA) | binding result (mTLR1 TM N′) |
| --- | --- | --- | --- |
| LLGDFFRKSKEKIGKEFKRIVQRIKDFLRNLVPRTES (peptide, UniProt P49913 134-170, looked up, also: rhodamine label, Positive control of the self-assembly assay; LL-37 is the C-terminal 37 residues of the cathelicidin precursor; also called oligomeric antimicrobial peptide LL37) [LL37] | binds | – | – |
| GLRILLLKV-NH2 (also: rhodamine label, Negative control in the FRET experiments; also called TCRα TM domain peptide) [Cp, the core TM peptide of TCRα] | – | no binding | no binding |

— patent US20130225478A1 (YEDA RESEARCH AND DEVELOPMENT, published 2013)
